Experimental data published in PMC8528238 (Nature, 2021).

Target: batCoV-SHC014 S-2P (Bat SARS-like coronavirus RsSHC014, UniProt U5WLK5, stabilised)
Test: ELISA

B1: DH1047, cross-neutralizing RBD antibody (antibody, V domains shown)
VH: QVQLVQSGAEVKKPGASVQVSCQASANTFTNHYIHWVRQAPGQGLEWMGIIYPTGGNTIYAQGFQGRVTMTRDTSLNTIYLELSSLRSEDTAVYYCARDVRVDDSWSGYDLLSGGTYFDYWGQGTLVTVSS
VL: not shown
- binding result: binds
